Measurements reported in publication PMC2688778 (Structure (London, England : 1993), 2009).

What was measured:
Assay in all cases: fluorescence anisotropy
RecE564 WT = target: T1, RecE564 WT (Escherichia coli K12, UniProt P15032 564-866)
T1 sequence: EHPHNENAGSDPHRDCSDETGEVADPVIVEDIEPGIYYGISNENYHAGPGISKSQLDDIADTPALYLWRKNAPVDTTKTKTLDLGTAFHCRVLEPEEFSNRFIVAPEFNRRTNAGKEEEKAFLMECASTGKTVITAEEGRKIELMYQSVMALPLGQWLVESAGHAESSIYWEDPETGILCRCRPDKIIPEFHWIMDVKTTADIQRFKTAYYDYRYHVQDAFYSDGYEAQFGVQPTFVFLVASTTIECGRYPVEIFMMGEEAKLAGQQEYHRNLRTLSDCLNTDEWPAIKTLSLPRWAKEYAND

RecE564 R858A = target: T2, RecE564 R858A (Escherichia coli K12, UniProt P15032 564-866, R858A)
T2 sequence: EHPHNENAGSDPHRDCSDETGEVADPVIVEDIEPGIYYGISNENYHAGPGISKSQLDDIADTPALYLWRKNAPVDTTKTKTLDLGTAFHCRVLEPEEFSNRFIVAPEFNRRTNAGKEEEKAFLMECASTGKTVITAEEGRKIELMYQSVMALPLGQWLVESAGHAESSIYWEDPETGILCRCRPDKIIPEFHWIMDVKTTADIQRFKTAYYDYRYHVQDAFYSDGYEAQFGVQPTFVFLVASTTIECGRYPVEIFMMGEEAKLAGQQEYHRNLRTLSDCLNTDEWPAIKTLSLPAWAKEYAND

RecE564 R768A = target: T3, RecE564 R768A (Escherichia coli K12, UniProt P15032 564-866, R768A)
T3 sequence: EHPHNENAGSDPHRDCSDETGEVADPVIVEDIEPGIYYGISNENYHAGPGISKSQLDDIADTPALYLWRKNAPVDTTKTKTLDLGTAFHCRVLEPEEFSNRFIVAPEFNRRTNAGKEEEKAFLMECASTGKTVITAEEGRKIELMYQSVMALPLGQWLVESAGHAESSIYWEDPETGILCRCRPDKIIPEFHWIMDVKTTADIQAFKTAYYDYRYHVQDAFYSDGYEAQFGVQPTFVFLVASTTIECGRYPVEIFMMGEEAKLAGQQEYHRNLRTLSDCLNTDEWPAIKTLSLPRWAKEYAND

RecE564 H652A = target: T4, RecE564 H652A (Escherichia coli K12, UniProt P15032 564-866, H652A)
T4 sequence: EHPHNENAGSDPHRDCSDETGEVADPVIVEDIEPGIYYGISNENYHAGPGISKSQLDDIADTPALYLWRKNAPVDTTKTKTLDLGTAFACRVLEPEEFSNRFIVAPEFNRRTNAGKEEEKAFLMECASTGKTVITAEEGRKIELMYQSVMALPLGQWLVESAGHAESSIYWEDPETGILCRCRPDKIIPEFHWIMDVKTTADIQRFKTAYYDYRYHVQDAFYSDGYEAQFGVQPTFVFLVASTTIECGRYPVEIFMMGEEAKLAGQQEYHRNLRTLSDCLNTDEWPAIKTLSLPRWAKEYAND

lambda exonuclease = target: T5, lambda exonuclease (bacteriophage lambda, UniProt P03697 1-226)
T5 sequence: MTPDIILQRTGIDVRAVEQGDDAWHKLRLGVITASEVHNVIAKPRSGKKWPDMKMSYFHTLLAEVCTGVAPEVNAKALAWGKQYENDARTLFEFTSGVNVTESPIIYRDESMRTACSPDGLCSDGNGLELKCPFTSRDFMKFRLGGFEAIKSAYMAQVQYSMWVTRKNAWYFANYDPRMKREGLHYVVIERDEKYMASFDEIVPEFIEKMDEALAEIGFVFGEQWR

RecE564 R744A = target: T6, RecE564 R744A (Escherichia coli K12, UniProt P15032 564-866, R744A)
T6 sequence: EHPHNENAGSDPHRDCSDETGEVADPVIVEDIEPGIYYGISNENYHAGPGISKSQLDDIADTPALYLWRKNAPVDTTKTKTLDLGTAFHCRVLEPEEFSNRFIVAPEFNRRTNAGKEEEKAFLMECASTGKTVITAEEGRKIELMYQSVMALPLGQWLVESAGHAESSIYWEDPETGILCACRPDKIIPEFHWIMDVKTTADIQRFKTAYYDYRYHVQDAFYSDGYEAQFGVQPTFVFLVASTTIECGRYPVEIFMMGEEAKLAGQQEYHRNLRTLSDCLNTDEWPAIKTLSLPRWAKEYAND

RecE564 Y778A = target: T7, RecE564 Y778A (Escherichia coli K12, UniProt P15032 564-866, Y778A)
T7 sequence: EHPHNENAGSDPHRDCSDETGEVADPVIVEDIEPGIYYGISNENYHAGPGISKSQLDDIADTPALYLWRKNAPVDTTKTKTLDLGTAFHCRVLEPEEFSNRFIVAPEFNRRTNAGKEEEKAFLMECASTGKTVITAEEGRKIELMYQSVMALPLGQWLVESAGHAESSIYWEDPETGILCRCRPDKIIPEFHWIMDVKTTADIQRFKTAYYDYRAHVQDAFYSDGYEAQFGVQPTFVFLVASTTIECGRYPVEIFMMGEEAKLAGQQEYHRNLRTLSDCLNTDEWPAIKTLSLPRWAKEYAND

B1: F25 (dsDNA)
DNA 1: TAGAGCTTAATTGCTGAATCTGGTG
DNA 2: CACCAGATTCAGCAATTAAGCTCTA
RecE564 WT
  Kd: 70 ± 2 nM
RecE564 R858A
  Kd: 77 ± 5 nM
RecE564 R768A
  Kd: 310 ± 30 nM
RecE564 H652A
  Kd: 130 ± 10 nM
Lambda exonuclease
  Kd: 161 ± 2 nM
RecE564 R744A
  Kd: 95 ± 8 nM
RecE564 Y778A
  Kd: 130 ± 20 nM
